Patent US20050143285A1
Several values for one entry are separate records, joined by “and”; a condition that tells them apart may be missing. Identical values can stand only once. Like-named read-outs stand apart in the source and are kept apart here.

B1: α-bungarotoxin, P60615 22-95 (peptide)
chain: IVCHTTATSPISAVTCPPGENLCYRKMWCDAFCSSRGKVVELGCAATCPSKKPYEEVTCCSTDKCNPHPKQRPG
modifications: not checked
B2: α-Cobratoxin, P01391 1-71 (peptide)
chain: IRCFITPDITSKDCPNGHVCYTKTWCDAFCSIRGKRVDLGCAATCPTVKTGVDIQCCSTDNCNPFPTRKRP
modifications: not checked

Legend:
[1] = target: T1, Aplysia californica acetylcholine binding protein (AChBP) (Aplysia californica)
T1 chain: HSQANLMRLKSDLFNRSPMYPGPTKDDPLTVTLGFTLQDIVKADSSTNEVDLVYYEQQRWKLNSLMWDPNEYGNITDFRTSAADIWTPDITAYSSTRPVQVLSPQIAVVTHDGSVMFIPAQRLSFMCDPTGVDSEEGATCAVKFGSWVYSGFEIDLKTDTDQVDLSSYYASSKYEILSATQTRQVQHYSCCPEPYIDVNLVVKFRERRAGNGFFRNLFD

[2] = target: T2, Lymnaea stagnalis acetylcholine binding protein (AChBP) (Lymnaea stagnalis), P58154
[3] = target: T2, Lymnaea stagnalis acetylcholine binding …; remark: listed apart in the source
[4] = target: T2, Lymnaea stagnalis acetylcholine binding …; experiment: stopped-flow, intrinsic tryptophan fluorescence quenching of Lymnaea AChBP
[5] = target: T2, Lymnaea stagnalis acetylcholine binding …; remark: listed apart in the source
[6] = target: T2, Lymnaea stagnalis acetylcholine binding …; experiment: stopped-flow fluorescence; Kd calculated from k-1/k1
[7] = target: T2, Lymnaea stagnalis acetylcholine binding …; experiment: equilibrium titration, intrinsic tryptophan fluorescence of Lymnaea AChBP
[8] = target: T2, Lymnaea stagnalis acetylcholine binding …; experiment: ratio of Kd on Lymnaea AChBP to Kd on Aplysia AChBP
[9] = target: T2, Lymnaea stagnalis acetylcholine binding …; experiment: stopped-flow spectrofluorimetry, excitation 280 nm, emission above 305 nm

T2 sequence (P58154 20-229): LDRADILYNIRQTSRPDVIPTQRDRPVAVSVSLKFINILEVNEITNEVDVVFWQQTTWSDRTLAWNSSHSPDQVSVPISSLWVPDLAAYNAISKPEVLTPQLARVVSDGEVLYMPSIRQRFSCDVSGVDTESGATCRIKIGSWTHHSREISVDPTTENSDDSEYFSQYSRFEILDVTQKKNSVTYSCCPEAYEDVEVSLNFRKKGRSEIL

Row | Binder | fold lower affinity than for L-AChBP [1] [fold] | fold slower rate of association than epibatidine [2] [fold] | k2 (unimolecular step of association) [2] [s⁻¹] | koff [3] [s⁻¹] | koff [4] [s⁻¹] | kon [4] [M⁻¹ s⁻¹] | Kd [5] [nM] | Kd [6] [nM] | percent quenching of the unliganded receptor fluorescence [7] | Kd Ratio L/A [8] | kon [9] [M⁻¹ s⁻¹]
1 | B1 | 100 | 200 | 0.34 | 0.001 | 0.0017 | 970000 | 1.8 | 1.8 | 15% and 20% | 0.0071 | 900000
2 | B2 | – | – | – | – | 0.011 | 3.3e+06 | – | 3.2 | – | – | –
3 | GGKPDLRPCHPPCHYIPRPKPR (modifications not checked) [Waglerin-1, P24335 3-24] | – | – | – | – | 31 | 4.8e+06 | – | 6500 | – | – | –
